Key:
[1] = target: TUBB3-D417H (recombinant α/β-tubulin heterodimer with human TUBB3 D417H) (Homo sapiens) (UniProt P68363); experiment: TIRF microscopy single-filament polymerization assay
[2] = target: GST-TOG1/2; experiment: pull-down
[3] = target: wild-type TUBB3 (recombinant α/β-tubulin heterodimer with human β-tubulin isotype III) (Homo sapiens) (UniProt P68363); experiment: TIRF microscopy single-filament polymerization assay

TUBB3-D417H (recombinant α/β-tubulin heterodimer with human TUBB3 D417H) (from UniProt P68363-1 1-437; Q13509-1 1-426) (complex)
apparent association rate constant k+ of tubulin subunits at minus-ends [1]: 1.4e+06 M⁻¹ s⁻¹ | apparent dissociation rate constant k- of tubulin subunits at minus-ends [1]: 1.2 s⁻¹ | Kd [2]: 1200 nM

wild-type TUBB3 (recombinant α/β-tubulin heterodimer with human β-tubulin isotype III) (from UniProt P68363-1 1-437; Q13509-1 1-426) (complex)
apparent association rate constant k+ of tubulin subunits at plus-ends [3]: 1.7e+06 M⁻¹ s⁻¹ | apparent dissociation rate constant k- of tubulin subunits at plus-ends [3]: 1.1 s⁻¹ | Kd [2]: 400 nM
